From patent US20150239929A1 (PORTOLA PHARMACEUTICALS, published 2015) come the findings set out here.

The labels stand for the following.
B1: Soybean Trypsin Inhibitor (STI), immobilised on affinity resin (other, Glycine max (soybean), UniProt P01070 25-205, looked up)
chain: DFVLDNEGNPLENGGTYYILSDITAFGGIRAAPTGNERCPLTVVQSRNELDKGIGTIISSPYRIRFIAEGHPLSLKFDSFAVIMLCVGIPTEWSVVEDLPEGPAVKIGENKDAMDGWFRLERVSDDEFNNYKLVFCPQQAEDDKCGDIGISIDHDDGTRRLVVSKNKPLVVQFQKLDKESL
notes: also called STI-Agarose
B2: r-Antidote (fXa derivative, cleaved two-chain polypeptide of SEQ ID NO: 2) (enzyme)
light: ANSFLFWNKYKDGDQCETSPCQNQGKCKDGLGEYTCTCLEGFEGKNCELFTRKLCSLDNGDCDQFCHEEQNSVVCSCARGYTLADNGKACIPTGPYPCGKQTLER
heavy: IVGGQECKDGECPWQALLINEENEGFCGGTILSEFYILTAAHCLYQAKRFKVRVGDRNTEQEEGGEAVHEVEVVIKHNRFTKETYDFDIAVLRLKTPITFRMNVAPACLPERDWAESTLMTQKTGIVSGFGRTHEKGRQSTRLKMLEVPYVDRNSCKLSSSFIITQNMFCAGYDTKQEDACQGDAGGPHVTRFKDTYFVTGIVSWGEGCARKGKYGIYTKVTAFLKWIDRSMKTRGLPKAKSHAPEVITSSPLK
notes: Made in CHO cells; the two chains are linked by a disulfide bond; also called target protein; functional protein

The target of assay [1] is B2. Put plainly: affinity column loading of purified r-Antidote, 1 mL resin, 20 mM Tris/150 mM NaCl pH 7.4.
Assay [2] addresses Aprotinin, immobilised on agarose (Aprotinin-Agarose, catalog #A2268) (UniProt P00974 36-93). As to the kind of experiment: affinity column loading, 1 mL resin, 20 mM Tris/150 mM NaCl pH 7.4. The procedure: Commercially available affinity resins were screened for their efficacy in purifying r-Antidote. Various affinity resins were packed into a column (such as a Tricorn column, GE) with 1 mL of resin. Following sanitization according to manufacturer's recommendations, the column was equilibrated with 20 mM Tris/150 mM NaCl at pH 7.4, followed by testing their ability to bind r-Antidote in the same buffer. r-Antidote at a concentration of 0.145 mg/mL in PBS (Phosphate Buffered Saline), was loaded onto the column at a flow rate of 1 mL/min by injection (1 mL).

Take B1: the binding result in assay [1] is reported as “binds”.
For B2, in assay [2], the binding result is given as “no binding (tested: 0.145 mg/mL (1 mL injected))”.
